Experimental data reported in patent publication US9669118B2, “Method of labelling a biologically active molecule with 5-fluoro-5-deoxypentose or a 3-fluoro-3-deoxypentose” (UNIVERSITY COURT OF THE UNIVERSITY OF ST. ANDREWS, priority 2011, dated 2017).

Assay: Stability study of the conjugate in phosphate-buffered saline
Assay type: physicochemical
Settings: 37° C.
Description: A stability study confirmed that the conjugate 4a is stable in phosphate-buffered saline (PBS) at least for 8 hours at 37° C., which is stable enough for PET applications.

In the case of `N[C@@H](CCC(=O)N[C@@H](CSC1CC(=O)N(CCCCCCON=C[C@H](O)[C@H](O)[C@H](O)CF)C1=O)C(=O)NCC(=O)O)C(=O)O` (stereo partly shown) [conjugate 4a], the “stable in phosphate-buffered saline (PBS)” value was at least 8 h.
